According to article PMC8199477:

Biological target: urate oxidase from Deinococcus radiodurans (DrUox) (Deinococcus radiodurans R1)
Assay: SEC; Superdex 200 (10/300) GL, 20 mM Tris-HCl pH 8.0, 100 mM NaCl, 0.5 mL/min; size by interpolation against protein markers

stoichiometry N: 4
Substance: urate oxidase from Deinococcus radiodurans (DrUox) (enzyme)
